Reference: PMC11633383, “Role of VapBC4 toxin-antitoxin system of Sulfolobus acidocaldarius in heat stress adaptation” (mBio, 2024)

Biological target: T1, VapC4 toxin (Saci_1813) with a C-terminal histidine tag (Sulfolobus acidocaldarius DSM639, UniProt Q4J7W2 1-140, FITC (Alexa-488) fluorescent probe, site not stated, F/P ratio approximately 0.5 (in the FRET assay only))
T1 construct: also called Saci VapC4; pAG153; not shown: His tag, C-terminal, kept
T1 sequence (looked up): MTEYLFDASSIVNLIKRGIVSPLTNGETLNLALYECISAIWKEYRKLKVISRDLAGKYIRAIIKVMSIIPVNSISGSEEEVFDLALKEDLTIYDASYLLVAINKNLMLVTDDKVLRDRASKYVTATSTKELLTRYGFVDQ
Experiment: FRET or BRET; FITC-labelled VapC4 (100 nM, donor) titrated with TRITC-labelled VapB4 (25-2,000 nM, acceptor); excitation 495 nm, FITC emission at 520 nm, 60°C; fit to a hyperbolic binding equation
Conditions: both partners purified

B1: VapB4 antitoxin (Saci_1812) with a C-terminal histidine tag (natural protein, Sulfolobus acidocaldarius DSM639, UniProt Q4J7W4 1-77, looked up)
chain: MDSSGYVTISAKVPRELKELMDKYGIKPGPVIRKALEEEVRRRAIQELEKELKDLKEKSQISDEDVARLIREDRESR
modifications: TRITC (Alexa-532) fluorescent probe, site not stated, F/P ratio approximately 0.5 (in the FRET assay only)
notes: Unlabelled in the RNase neutralisation assay, TRITC-labelled in FRET; also called pAG154; source: E. coli BL21(DE3)-RIL, purified (Ni2+-NTA, dialysis)
Kd: 40 ± 2.2 nM
